The test has as its target human insulin receptor (IR), overexpressed in rat fibroblasts (HIRc B cells) (human) (UniProt P06213). Put plainly: cell-based or functional assay.

Substance “recombinant human AHSG (α2-Heremans Schmid Glycoprotein) (from UniProt P02765 19-367)” showed an insulin-induced IR autophosphorylation in intact HIRc B cells, rhAHSG at 1.8 µM above 50%.

For the origin of these results see patent US20040198648A1.
